Test results as given in paper PMC7082061 (PLoS Pathogens, 2020).

B1: MOKV G_(1-436)WT (wild type Mokola virus glycoprotein G ectodomain) (domain or fragment)
chain: EFPLYTIPEKIEKWTPIDMIHLSCPNNLLSEEEGCNAESSFTYFELKSGYLAHQKVPGFTCTGVVNEAETYTNFVGYVTTTFKRKHFRPTVAACRDAYNWKVSGDPRYEESLHTPYPDSSWLRTVTTTKESLLIISPSIVEMDIYGRTLHSPMFPSGVCSNVYPSVPSCETNHDYTLWLPEDPSLSLVCDIFTSSNGKKAMNGSRICGFKDERGFYRSLKGACKLTLCGRPGIRLFDGTWVSFTKPDVHVWCTPNQLINIHNDRLDEIEHLIVEDIIKKREECLDTLETILMSQSVSFRRLSHFRKLVPGYGKAYTILNGSLMETNVYYKRVDKWADILPSKGCLKVGQQCMEPVKGVLFNGIIKGPDGQILIPEMQSEQLKQHMDLLKAAVFPLRHPLISREAVFKKDGDADDFVDLHMPDVHKSVSDVDLGLPH

Columns and labels:
[1] = molecular target: VSV Gth (aa residues 1-422, VSV G fragment that was previously crystallized) (vesicular stomatitis virus); test: negative staining electron microscopy
[2] = molecular target: the molecule itself; test: negative staining electron microscopy

Molecule | stoichiometry N [1] | stoichiometry N [2]
VSV Gth (aa residues 1-422, VSV G fragment that was previously crystallized) (domain or fragment) | 3 | –
B1 | – | 3
